Our source for the EC50 values is patent publication US20250326840A1.

In assay [1] the target is PD-L1-his (QPP09) (human) (UniProt Q9NZQ7). The assay can be described thus: ELISA, PD-L1 captured by coated anti-HIS antibody. Background: ELISA stands for enzyme-linked immunosorbent assay.
Assay [2] addresses human PD-L1 on HCC827 cells (human) (UniProt Q9NZQ7). The assay can be described thus: FACS on HCC827 cells.

Chain of PD-L1-his (QPP09) (human) (Q9NZQ7 19-239 limits assumed): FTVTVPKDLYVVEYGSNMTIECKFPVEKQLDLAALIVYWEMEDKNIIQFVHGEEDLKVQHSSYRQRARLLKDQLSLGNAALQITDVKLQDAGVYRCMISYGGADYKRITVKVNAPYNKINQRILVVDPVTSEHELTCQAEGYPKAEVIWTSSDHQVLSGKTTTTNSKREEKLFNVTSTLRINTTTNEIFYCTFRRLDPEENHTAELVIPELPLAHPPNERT
Chain of human PD-L1 on HCC827 cells (human) (Q9NZQ7 19-290): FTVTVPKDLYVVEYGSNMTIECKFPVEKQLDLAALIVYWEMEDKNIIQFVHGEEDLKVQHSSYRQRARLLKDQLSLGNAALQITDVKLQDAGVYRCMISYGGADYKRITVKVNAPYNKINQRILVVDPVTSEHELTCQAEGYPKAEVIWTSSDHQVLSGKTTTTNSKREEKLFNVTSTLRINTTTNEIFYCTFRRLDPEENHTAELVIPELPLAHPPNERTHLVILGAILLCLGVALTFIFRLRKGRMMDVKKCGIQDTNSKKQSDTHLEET

Tecentriq (antibody): the EC50 (commonly the concentration needed to bring the measured effect to its halfway point) in assay [1] stood at 0.0919 nM; in assay [2], 0.109 nM.
